Experiments:
SEC = target: the molecule itself; test: SEC
SEC-MALS = target: the molecule itself; test: SEC-MALS

B1: caseinolytic protease ClpP from Thermus thermophilus (TtClpP) (enzyme)
chain: not shown
- stoichiometry N (SEC): 7
- stoichiometry N (SEC-MALS): 14
